Experimental findings from paper PMC5892938, “SARNAclust: Semi-automatic detection of RNA protein binding motifs from immunoprecipitation data” are described below.

Changes are numbered by the printed parent chain.

The target in this data set is GST-SBP-SLBP (stem-loop binding protein) (Homo sapiens, UniProt Q14493 1-270). In words: targeted RNA Bind-n-Seq; RBNS binding buffer: 25 mM Tris pH 7.5, 150 mM KCl, 3 mM MgCl2, 0.1% Tween, 0.5 mg/mL BSA, 1 mM DTT; 27 nM protein, 750 pM RNA pool; temperature not stated; high values mean tight binding. The conditions noted are these: protein: recombinant; tags: N-terminal GST and SBP (pGEX6P1-SBP). The essentials: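 The protein, carrying a GST-SBP tag, was produced in Rosetta(DE3) pLysS E. coli, purified on glutathione, and mixed at 27 nM with 750 pM of a designed RNA oligo pool made by T7 transcription in RBNS binding buffer. RNA that bound was reverse transcribed using a barcoded primer of 10 nucleotides, amplified by PCR and sequenced on a MiSeq with 200-cycle paired-end reads. FLASH joined the reads, HISAT2 aligned them, and they were collapsed by barcode before the binding signal was taken as the DEseq binary-logarithm fold change of read counts for each sequence.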

B1: consensus (structured_RNA)
RNA: GGUCACGUCUCAAUCAACUCCCAAAGGCUUUUCUCAGAGCCACCCAUCAACAGCUCGCAGUCAAG
For B1, the binding signal was found to be 0.979 ± 0.14 log2 fold change.

B2: consensus (structured_RNA)
RNA: B1 RNA with C28U, U29C, C35A, G37A, A38G, G39A
Regarding B2, the binding signal worked out at 3.73 ± 0.129 log2 fold change.

B3: consensus (structured_RNA)
RNA: B1 RNA with C28U, U29C, U30C, C35A, A38G, G39A
Consider B3, for which the binding signal was 3.48 ± 0.135 log2 fold change.

B4: consensus (structured_RNA)
RNA: B1 RNA with U30C, C35A
B4: the binding signal stood at 3.2 ± 0.135 log2 fold change.

B5: consensus (structured_RNA)
RNA: B1 RNA with C28U, U29C, U30C, C33U, C35A, A38G
In the case of B5, the binding signal came to 3.26 ± 0.128 log2 fold change.

B6: consensus (structured_RNA)
RNA: B1 RNA with C28U, C33U, C35A, G39A
With B6, the binding signal was 0.759 ± 0.157 log2 fold change.

B7: consensus (structured_RNA)
RNA: B1 RNA with C28U, U29C, C35U, G37A, A38G, G39A
Consider B7, for which the binding signal was 3.14 ± 0.132 log2 fold change.

B8: consensus (structured_RNA)
RNA: B1 RNA with C35A, G37A
As for B8, the binding signal turned out to be 3.29 ± 0.116 log2 fold change.

B9: consensus (structured_RNA)
RNA: B1 RNA with U29C, U30C, C33U, C35G, A38G
For B9, the binding signal was found to be 3.37 ± 0.174 log2 fold change.

B10: consensus (structured_RNA)
RNA: B1 RNA with C28U, U30C, C33U, C35A, G39A
Regarding B10, the binding signal is 3.2 ± 0.125 log2 fold change.

B11: consensus (structured_RNA)
RNA: B1 RNA with U29C, C35A, G37A, A38G
As for B11, the binding signal was determined as 3.74 ± 0.124 log2 fold change.

B12: consensus (structured_RNA)
RNA: B1 RNA with C28U, U29C, C33U, C35U, A38G
With B12, the binding signal amounted to 0.724 ± 0.177 log2 fold change.

B13: consensus (structured_RNA)
RNA: B1 RNA with C28U, U29C, C35U, A38G, G39A
For the molecule B13, the binding signal worked out at 0.816 ± 0.166 log2 fold change.

B14: consensus (structured_RNA)
RNA: B1 RNA with U29C, U30C, C35U, A38G
As for B14, the binding signal came out at 3.46 ± 0.16 log2 fold change.

B15: consensus (structured_RNA)
RNA: B1 RNA with U30C, C35U
As to B15, the binding signal is 3.11 ± 0.136 log2 fold change.

B16: consensus (structured_RNA)
RNA: B1 RNA with U29C, C33U, C35G, G37A, A38G
Turning to B16, the binding signal was determined as 3.34 ± 0.155 log2 fold change.

B17: consensus (structured_RNA)
RNA: B1 RNA with C33U, C35A, G37A, A38G
As for B17, the binding signal was 3.16 ± 0.137 log2 fold change.

B18: consensus (structured_RNA)
RNA: B1 RNA with U30C, C35A, A38G
With B18, the binding signal came to 3.19 ± 0.123 log2 fold change.

B19: consensus (structured_RNA)
RNA: B1 RNA with C28U, U29C, C33U, C35U, G37A, A38G, G39A
Regarding B19, the binding signal was found to be 3.2 ± 0.118 log2 fold change.

B20: consensus (structured_RNA)
RNA: B1 RNA with C28U, U29C, U30C, C35A, A38G
With B20, the binding signal turned out to be 3.27 ± 0.13 log2 fold change.

B21: consensus (structured_RNA)
RNA: B1 RNA with C28U, U29C, U30C, C33U, C35U, A38G, G39A
Regarding B21, the binding signal was 3.37 ± 0.117 log2 fold change.

B22: consensus (structured_RNA)
RNA: B1 RNA with C28U, C35A, G39A
For the molecule B22, the binding signal was 0.796 ± 0.151 log2 fold change.

B23: consensus (structured_RNA)
RNA: B1 RNA with C28U, U29C, C35A, G37A, A38G
On to B23, for which the binding signal turned out to be 3.19 ± 0.133 log2 fold change.

B24: consensus (structured_RNA)
RNA: B1 RNA with C35U, A38G
On to B24, for which the binding signal was determined as 0.933 ± 0.168 log2 fold change.

B25: consensus (structured_RNA)
RNA: B1 RNA with U29C, C35G, G37A, A38G
As to B25, the binding signal was 3.32 ± 0.133 log2 fold change.

B26: consensus (structured_RNA)
RNA: B1 RNA with C28U, U29C, C33U, C35A, G37A, A38G, G39A
In the case of B26, the binding signal was 3.5 ± 0.12 log2 fold change.

B27: consensus (structured_RNA)
RNA: B1 RNA with U30C, C33U, C35A
On to B27, for which the binding signal amounted to 3.5 ± 0.152 log2 fold change.

B28: consensus (structured_RNA)
RNA: B1 RNA with C33U, G37A, A38G
With B28, the binding signal was determined as 3.17 ± 0.125 log2 fold change.

B29: consensus (structured_RNA)
RNA: B1 RNA with C28U, U29C, U30C, C35U, A38G, G39A
Regarding B29, the binding signal was 3.13 ± 0.132 log2 fold change.

B30: consensus (structured_RNA)
RNA: B1 RNA with C28U, U29C, A38G
On to B30, for which the binding signal was 0.935 ± 0.161 log2 fold change.

B31: consensus (structured_RNA)
RNA: B1 RNA with C28U, U30C, C33U, G39A
Consider B31, for which the binding signal was determined as 3.44 ± 0.114 log2 fold change.

B32: consensus (structured_RNA)
RNA: B1 RNA with C28U, U29C, U30C, C33U, A38G
On to B32, for which the binding signal is 3.33 ± 0.12 log2 fold change.

B33: consensus (structured_RNA)
RNA: B1 RNA with C33U, G37A
B33: the binding signal is 3.5 ± 0.119 log2 fold change.

B34: consensus (structured_RNA)
RNA: B1 RNA with C28U, U29C, U30C, C33U, C35G, A38G, G39A
For the molecule B34, the binding signal is 3.06 ± 0.144 log2 fold change.

B35: consensus (structured_RNA)
RNA: B1 RNA with U29C, C33U, G37A, A38G
With B35, the binding signal turned out to be 3.7 ± 0.124 log2 fold change.

B36: consensus (structured_RNA)
RNA: B1 RNA with U29C, C35U, G37A, A38G
For B36, the binding signal was determined as 3.55 ± 0.131 log2 fold change.

B37: consensus (structured_RNA)
RNA: B1 RNA with U30C, C33U, C35U
On to B37, for which the binding signal stood at 3.17 ± 0.142 log2 fold change.

B38: consensus (structured_RNA)
RNA: B1 RNA with C28U, U29C, G37A, A38G, G39A
As to B38, the binding signal amounted to 3.5 ± 0.113 log2 fold change.

B39: consensus (structured_RNA)
RNA: B1 RNA with C28U, C35A, G37A, G39A
As for B39, the binding signal came to 3.04 ± 0.144 log2 fold change.

B40: consensus (structured_RNA)
RNA: B1 RNA with C28U, U29C, U30C, A38G, G39A
Turning to B40, the binding signal worked out at 3.44 ± 0.13 log2 fold change.

B41: consensus (structured_RNA)
RNA: B1 RNA with C33U, C35U
Consider B41, for which the binding signal was determined as 0.854 ± 0.146 log2 fold change.

B42: consensus (structured_RNA)
RNA: B1 RNA with C28U, C33U
For the molecule B42, the binding signal is 0.623 ± 0.163 log2 fold change.

B43: consensus (structured_RNA)
RNA: B1 RNA with C28U, U29C, C33U, C35A, G37A, A38G
Take B43: the binding signal was determined as 3.18 ± 0.125 log2 fold change.

B44: consensus (structured_RNA)
RNA: B1 RNA with G37A
For B44, the binding signal stood at 3.24 ± 0.124 log2 fold change.

B45: consensus (structured_RNA)
RNA: B1 RNA with C33U, C35A, G37A
As to B45, the binding signal turned out to be 3.48 ± 0.133 log2 fold change.

B46: consensus (structured_RNA)
RNA: B1 RNA with C28U, U29C, U30C, A38G
Turning to B46, the binding signal stood at 3.16 ± 0.131 log2 fold change.

B47: consensus (structured_RNA)
RNA: B1 RNA with U29C, U30C, C33U, C35U, A38G
Consider B47, for which the binding signal is 3.48 ± 0.162 log2 fold change.

B48: consensus (structured_RNA)
RNA: B1 RNA with C28U, C33U, G39A
As to B48, the binding signal is 0.928 ± 0.165 log2 fold change.

B49: consensus (structured_RNA)
RNA: B1 RNA with U30C
Consider B49, for which the binding signal came to 3.23 ± 0.14 log2 fold change.

B50: consensus (structured_RNA)
RNA: B1 RNA with U30C, C33U, C35A, A38G
For the molecule B50, the binding signal turned out to be 3.07 ± 0.12 log2 fold change.

B51: consensus (structured_RNA)
RNA: B1 RNA with U30C, C33U
With B51, the binding signal stood at 3.73 ± 0.129 log2 fold change.

B52: consensus (structured_RNA)
RNA: B1 RNA with U29C, U30C, C35G, A38G
For B52, the binding signal is 3.16 ± 0.18 log2 fold change.

B53: consensus (structured_RNA)
RNA: B1 RNA with U29C, U30C, C33U, C35A, A38G
In the case of B53, the binding signal turned out to be 3.52 ± 0.16 log2 fold change.

B54: consensus (structured_RNA)
RNA: B1 RNA with C28U, U29C, C33U, G37A, A38G
For B54, the binding signal amounted to 3.26 ± 0.121 log2 fold change.
